Test results from the supplement of paper PMC10471632, “Protein engineering and iterative multimodule optimization for vitamin B6 production in Escherichia coli” (Nature Communications, 2023).
± gives the standard deviation of the averaged measurements.

B1: library; numbered along this chain (parent)
chain: MAELLLGVNIDHIATLRNARGTAYPDPVQAAFIAEQAGADGITVHLREDRRHITDRDVRILRQTLDTRMNLEMAVTEEMLAIAVETKPHFCCLVPEKRQEVTTEGGLDVAGQRDKMRDACKRLADAGIQVSLFIDADEEQIKAAAEVGAPFIEIHTGCYADAKTDAEQAQELARIAKAATFAASLGLKVNAGHGLTYHNVKAIAAIPEMHELNIGHAIIGRAVMTGLKDAVAEMKRLMLEARG

Variants of: B1
Assay: pyridoxine titer in culture supernatant of strain expressing the PdxJ variant; higher = more PN produced (higher in vivo pathway activity of the PdxJ variant)
Conditions: host strain: E. coli LL006; 48 h; temperature: 37 °C; FM1.4
Description: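 Rosetta-designed single to quadruple mutants of E. coli PdxJ (PNP synthase) were expressed from pRSFDuet-1 in the engineered chassis E. coli LL006 (MG1655 ΔpdxH::pdxST, pta::Eme_pdxP). Strains were grown in 24 deep-well plates in 2 mL FM1.4 glycerol medium at 37 °C and 800 rpm for 48 h. Extracellular pyridoxine (PN) titer was quantified by HPLC with fluorescence detection; two biological replicates, with the WT pdxJ strain (LL137, about 0.5 mg/L) as control.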

| Variant | pyridoxine titer [mg/L] |
| --- | --- |
| MAELLLGVNLDLIATLRNARGTAYPDPVQAAFIAEQAGADGITVHLREDRRHITDRDVRILRQTLDTRMNLEMAVTEEMLAIAVETKPHFCCLVPEKRQEVTLEGGLDVAGQRDKMRDACKRLADAGIQVSLFIDADEEQIKAAAEVGAPFIEIHTGCYADAKTDAEQAQELARIAKAATFAASLGLKVNAGHGLTYHNVKAIAAIPEMHELNIGHAIIGRAVMTGLKDAVAEMKRLMLEARG [I10L H12L T103L] | 0.18 ± 0.028 |
| MAELLLGVNLDHIATLRNARGTAYPDPVQAAFIAEQAGADGITVHLREDRRHITDRDVRILRQTLDTRMNLEMAVTEEMLAIAVETKPHFCCLVPEKRQEVTTEGGLDVAGQRDKMRDACKRLADAGIQVSLFIDADEEQIKAAAEVGAPFIEIHTGCYADAKTDAEQAQELARIAKAATFAASLGLKVNAGHCLLYHNVKAIAAIPEMHELNIGHALIGRAVMTGLKDAVAEMKRLMLEARG [I10L G194C T196L I218L] | 0.562 ± 0.075 |
| MAELLLGVNLDHIATLRNARGTAYPDPVQAAFIAEQAGADGITVHLREDRRHITDRDVRILRQTLDTRMNLEMAVTEEMLAIAVETKPHFCCLVPEKRQEVTTEGGLDVAGQRDKMRDACKRLADAGIQVSLFIDADEEQIKAAAEVGAPFIEIHTGCYADAKTDAEQAQELARIAKAATFAASLGLKVNAGHGLTYHNVKAIAAIPEMHELNIGHALIGRAVMTGLKDAVAEMKRLMLEARG [I10L I218L] | 2.4 ± 0.35 |
| MAELLLGVNLDHIATLRNARGTAYPDPVQAAFIAEQAGADGITVHLREDRRHITDRDVRILRQTLDTRMNLEMAVTEEMLAIAVETKPHFCCLVPEKRQEVTTEGGLDVAGQRDKMRDACKRLADAGIQVSLFIDADEEQIKAAAEVGAPFIEIITGCYADAKTDAEQAQELARIAKAATFAASLGLKVNAGHGLTYHNVKAIAAIPEMHELNIGHALIGRAVMTGLKDAVAEMKRLMLEARG [I10L H155I I218L] | 0.28 ± 0.028 |
| MAELLLGVNLDHIATLRNARGTAYPDPVQAAFIAEQAGADGITVHLREDRRHITDRDVRILRQTLDTRMNLEMAVTEEMLAIAVETKPHFCCLVPEKRQEVTTTGGLDVAGQRDKMRDACKRLADAGIQVSLFIDADEEQIKAAAEVGAPFIEIHTGCYADAKTDAEQAQELARIAKAATFAASLGLKVNAGHGLTYHNVKAIAAIPEMHELNIGHAIIGRAVMTGLKDAVAEMKRLMLEARG [I10L E104T] | 1.1 ± 0.48 |
| MAELLLGVNLDHVATLRNARGTAYPDPVQAAFIAEQAGADGITVHLREDRRHITDRDVRILRQTLDTRMNLEMAVTEEMLAIAVETKPHFCCLVPEKRQEVTTEGGLDVAGQRDKMRDACKRLADAGIQVSLFIDADEEQIKAAAEVGAPFIEIHTGCYADAKTDAEQAQELARIAKAATFAASLGLKVNAGHGLVYHNVKAIAAIPEMHEINIGHAIIGRAVMTGLKDAVAEMKRLMLEARG [I10L I13V T196V L212I] | 0.575 ± 0.077 |
| MAELLLGVNLDHIATLRNARDVAYPDPVQAAFIAEQAGADGITVHLREDRRHITDRDVRILRQTLDTRMNLEMAVTEEMLAIAVETKPHFCCLVPEKRQEVTTTGGLDVAGQRDKMRDACKRLADAGIQVSLFIDADEEQIKAAAEVGAPFIEIHTGCYADAKTDAEQAQELARIAKAATFAASLGLKVNAGHGLTYHNVKAIAAIPEMHELNIGHAIIGRAVMTGLKDAVAEMKRLMLEARG [I10L G21D T22V E104T] | 2.44 ± 1.1 |
| MAELLLGVNLDHIATLRNARGTAYPDPVQAAFIAEQAGADGITVHLREDRRHITDRDVRILRQTLDTRMNLEMAVTEEMLAIAVETKPHFCCLVPEKRQEVTTTGGLDVAGQRDKMRDACKRLADAGIQVSLFIDADEEQIKAAAEVGAPFIEIHTGCYADAKTDAEQAQELARIAKAATFAASLGLKVNAGHGLTYHNVKAIAAIPEMHELNIGHALMGRAVMTGLKDAVAEMKRLMLEARG [I10L E104T I218L I219M] | 0.32 ± 0.054 |
| MAELLLGVNLDHIATLRNARGTAYPDPVQAAFIAEQAGADGITVHLREDRRHITDRDVRILRQTLDTRMNLEMAVTEEMLAIAVETKPHFCCLVPEKRQEVTTTGGLDVAGQRDKMRDACKRLADAGIQVSLFIDADEEQIKAAAEVGAPFIEIHTGCYADAKTDAEQAQELARIAKAATFAASLGLKVNAGHGLTYHNVKAIAAIPEMHELNIGHALWGRAVMTGLKDAVAEMKRLMLEARG [I10L E104T I218L I219W] | 0.561 ± 0.22 |
| MAELLLGVNLDHIATLRNARGTAYPDPVQAAFIAEQAGADGITVHLREDRRHITDRDVRILRQTLDTRMNLEMAVTEEMLAIAVETKPHFCCLVPEKRQEVTTEGGLDVAGQRDKMRDACKRLADAGIQVSLFIDADEEQIKAAAEVGAPFIEIHTGCYADAKTDAEQAQELARIAKAATFAASLGLKVNAGHGLTYHNVKAIAAIPEMHEINIGHAIIGRAVMTGLKDAVAEMKRLMLEARG [I10L L212I] | 1.64 ± 0.24 |
| MAELLLGVNLDHIATLRNARGVAYPDPVQAAFIAEQAGADGITVHLREDRRHITDRDVRILRQTLDTRMNLEMAVTEEMLAIAVETKPHFCCLVPEKRQEVTTEGGLDVAGQRDKMRDACKRLADAGIQVSLFIDADEEQIKAAAEVGAPFIEIHTGCYADAKTDAEQAQELARIAKAATFAASLGLKVNAGHGLTYHNVKAIAAIPEMHELNIGHAIIGRAVMTGLKDAVAEMKRLMLEARG [I10L T22V] | 6.01 ± 0.81 |
| MAELLLGVNLDHIATLRNARGTAYPDPVQAAFIAEQAGADGITVHLREDRRHITDRDVRILRQTLDTRMNLEMAVTEEMLAIAVETKPHFCCLVPEKRQIVTTEGGLDVAGQRDKMRDACKRLADAGIQVSLFIDADEEQIKAAAEVGAPFIEIHTGCYADAKTDAEQAQELARIAKAATFAASLGLKVNAGHGLTYHNVKAIAAIPEMHELNIGHALIGRAVMTGLKDAVAEMKRLMLEARG [I10L E100I I218L] | 0.24 ± 0.16 |
| MAELLLGVNLCHIATLRNARGTTYPDPVQAAFIAEQAGADGITVHLREDRRHITDRDVRILRQTLDTRMNLEMAVTEEMLAIAVETKPHFCCLVPEKRQEVTTEGGLDVAGQRDKMRDACKRLADAGIQVSLFIDADEEQIKAAAEVGAPFIEIHTGCYADAKTDAEQAQELARIAKAATFAASLGLKVNAGHGLTYHNVKAIAAIPEMHELNIGHAIIGRAVMTGLKDAVAEMKRLMLEARG [I10L D11C A23T] | 0.22 ± 0.057 |
| MAELLLGVNLDHIATLRNARGTYYPDPVQAAFIAEQAGADGITVHLREDRRHITDRDVRILRQTLDTRMNLEMAVTEEMLAIAVETKPHFCCLVPEKRQELTTTGGLDVAGQRDKMRDACKRLADAGIQVSLFIDADEEQIKAAAEVGAPFIEIHTGCYADAKTDAEQAQELARIAKAATFAASLGLKVNAGHGLTYHNVKAIAAIPEMHELNIGHAIIGRAVMTGLKDAVAEMKRLMLEARG [I10L A23Y V101L E104T] | 0.246 ± 0.0055 |
| MAELLLGVNLDHIATLRNARGVTYPDPVQAAFIAEQAGADGITVHLREDRRHITDRDVRILRQTLDTRMNLEMAVTEEMLAIAVETKPHFCCLVPEKRQEVTTEGGLDVAGQRDKMRDACKRLADAGIQVSLFIDADEEQIKAAAEVGAPFIEIHTGCYADAKTDAEQAQELARIAKAATFAASLGLKVNAGHGLTYHNVKAIAAIPEMHELNIGHAIIGRAVMTGLKDAVAEMKRLMLEARG [I10L T22V A23T] | 6.93 ± 0.49 |
| MAELLLGVNLDHIATLRNARGTAYPDPVQAAFIAEQAGADGITVHLREDRRHITDRDVRILRQTLDTRMNLEMAVTEEMLAIAVETKPHFCCLVPEKRQEVTTEGGLDVAGQRDKMRDACKRLADAGIQVSLFIDADEEQIKAAAEVGAPFIEIHTGCYADAKTDAEQAQELARIAKAATFAASLGLKVNAGHGLTYHNVKAIAAIPEMHELNIGHVIIGRAVMTGLKDAVAEMKRLMLEARG [I10L A217V] | 0.48 ± 0.028 |
| MAELLLGVNLDHIATLRNARGTAYPDPVQAAFIAEQAGADGITVHLREDRRHITDRDVRILRQTLDTRMNLEMAVTEEMLAIAVETKPHFCCLVPEKRQEVTTTGGLDVAGQRDKMRDACKRLADAGIQVSLFIDADEEQIKAAAEVGAPFIEIHTGCYADAKTDAEQAQELARIAKAATFAASLGLKVNAGHGLTYHNVKAIAAIPEMHELNIGHALIGRAVMTGLKDAVAEMKRLMLEARG [I10L E104T I218L] | 3.74 ± 0.56 |
| MAELLLGVNLDHIATLRNARGTAYPDPVQAAFIAEQAGADGITVHLREDRRHITDRDVRILRQTLDTRMNLEMAVTEEMLAIAVETKPHFCCLVPEKRQEVTTEGGLDVAGQRDKMRDACKRLADAGIQVSLFIDADEEQIKAAAEVGAPFIEIHTGCYADAKTDAEQAQELARIAKAATFAASLGLKVNAGHCLTYHNVKAIAAIPEMHELNIGHALLGRAVMTGLKDAVAEMKRLMLEARG [I10L G194C I218L I219L] | 1.09 ± 0.14 |
| MAELLLGVNLDHIATLRNARGTAYPDPVQAAFIAEQAGADGITVHLREDRRHITDRDVRILRQTLDTRMNLEMAVTEEMLAIAVETKPHFCCLVPEKRQEVTTEGGLDVAGQRDKMRDACKRLADAGIQVSLFIDADEEQIKAAAEVGAPFIEIHTGCYADAKTDAEQAQELARIAKAATFAASLGLKVNAGHCLYYHNVKAIAAIPEMHELNIGHALIGRAVMTGLKDAVAEMKRLMLEARG [I10L G194C T196Y I218L] | 0.378 ± 0.044 |
| MAELLLGVNLDHIATLRNARGTWYPDPVQAAFIAEQAGADGITVHLREDRRHITDRDVRILRQTLDTRMNLEMAVTEEMLAIAVETKPHFCCLVPEKRQELTTTGGLDVAGQRDKMRDACKRLADAGIQVSLFIDADEEQIKAAAEVGAPFIEIHTGCYADAKTDAEQAQELARIAKAATFAASLGLKVNAGHGLTYHNVKAIAAIPEMHELNIGHAIIGRAVMTGLKDAVAEMKRLMLEARG [I10L A23W V101L E104T] | 1.8 ± 0.37 |
| MAELLLGVNLDHIATLRNARGTAYPDPVQAAFIAEQAGADGITVHLREDRRHITDRDVRILRQTLDTRMNLEMAVTEEMLAIAVETKPHFCCLVPEKRQEVTTEGGLDVAGQRDKMRDACKRLADAGIQVSLFIDADEEQIKAAAEVGAPFIEIHTGCYADAKTDAEQAQELARIAKAATFAASLGLKVNAGHCLTYHNVKAIAAIPEMHELNIGHALIGRAVMTGLKDAVAEMKRLMLEARG [I10L G194C I218L] | 1.45 ± 0.3 |
| MAELLLGVNLDHVATLRNARGTAYPDPVQAAFIAEQAGADGITVHLREDRRHITDRDVRILRQTLDTRMNLEMAVTEEMLAIAVETKPHFCCLVPEKRQEVTTEGGLDVAGQRDKMRDACKRLADAGIQVSLFIDADEEQIKAAAEVGAPFIEIITGCYADAKTDAEQAQELARIAKAATFAASLGLKVNAGHGLTYHNVKAIAAIPEMHEINIGHAIIGRAVMTGLKDAVAEMKRLMLEARG [I10L I13V H155I L212I] | 1.66 ± 0.076 |
| MAELLLGVNLDHIATLRNARGTAYPDPVQAAFIAEQAGADGITVHLREDRRHITDRDVRILRQTLDTRMNLEMAVTEEMLAIAVETKPHFCCLVPEKRQEVTTTGGLDVAGQRDKMRDACKRLADAGIQVSLFIDADEEQIKAAAEVGAPFIEIHTGCYADAKTDAEQAQELARIAKAATFAASLGLKVNAGHQLTYHNVKAIAAIPEMHELNIGHALIGRAVMTGLKDAVAEMKRLMLEARG [I10L E104T G194Q I218L] | 1.46 ± 0.011 |
| MAELLLGVNLDHVATLRNARGTAYPDPVQAAFIAEQAGADGITVHLREDRRHITDRDVRILRQTLDTRMNLEMAVTEEMLAIAVETKPHFCCLVPEKRQEVTTEGGLDVAGQRDKMRDACKRLADAGIQVSLFIDADEEQIKAAAEVGAPFIEIHTGCYADAKTDAEQAQELARIAKAATFAASLGLKVNAGHGLTYHNVKAIAAIPEMHEINIGHAIIGRAVMTGLKDAVAEMKRLMLEARG [I10L I13V L212I] | 3.48 ± 1.7 |
